Reference: US20240182556A1 (OPSIDIO, published 2024)
Substitutions are numbered along the chain they refer to. Numbers in names are those of the source.

B1: 5H10 VK3/VH1 humanized antibody of Table 1 (antibody, V domains shown)
VH: QVQLVQSGAELKKPGSSVKISCKSSGYAFSSYWMNWVKQRPGQGLEWIGQIYPGDGDTHYNGKFKGKATLTADKSTSTAYMELSSLTSEDSAVYFCSSSNWVGSYWGQGTLVTVSS
VL: DVVMTQSPLSLPVTLGQPASISCKSSQSLLESDGKTYLNWLQQRPGQSPRRLIYLVSRLDSGVPDRFSGSGSGTDFTLKISRVEAEDVGVYYCWQGTHLPQTFGGGTKVEIK
B2: B53P scFv displayed on yeast (scFv, V domains shown)
VH: B1 VH with Y32Q, G54E, T58I
VL: B1 VL with K35N, S57D, H98D
notes: Aga2-anchored, VH-VL orientation; not shown: linker; SV5 tag
B3: A64P mutant expressed as full length IgG4 antibody (antibody, V domains shown)
VH: B1 VH with Y32N, G54E
VL: B1 VL with S32E, K35N, S57N, S61D, H98D
notes: Full length IgG4
B4: B34P scFv displayed on yeast (scFv, V domains shown)
VH: B1 VH with Y32N, G54E, G62D
VL: B1 VL with K35N, L59R, H98D
notes: as for B2
B5: H74P mutant expressed as full length IgG4 antibody (antibody, V domains shown)
VH: B1 VH with Y32Q, G54E
VL: B1 VL with S32E, K35N, S57D, S61L, T97S
notes: Full length IgG4
B6: D44P mutant expressed as full length IgG4 antibody (antibody, V domains shown)
VH: B1 VH with Y32Q, G54E, T58I
VL: B1 VL with S32E, K35N, S57D, T97S
notes: Full length IgG4
B7: D124P scFv displayed on yeast (scFv, V domains shown)
VH: B1 VH with Y32Q, G54E
VL: B1 VL with K35N, S57D, H98D
notes: as for B2
B8: A84P mutant expressed as full length IgG4 antibody (antibody, V domains shown)
VH: B1 VH with Y32Q, G54E, Y60M
VL: B1 VL with S32E, K35N, S57D, S61I, H98D
notes: Full length IgG4
B9: E94P scFv displayed on yeast (scFv, V domains shown)
VH: B1 VH with Y32Q, Y60M
VL: B1 VL with S32E, K35N, S57D, H98D
notes: as for B2
B10: D24P scFv displayed on yeast (scFv, V domains shown)
VH: B1 VH with Y32Q, G54E
VL: B1 VL with K35N, S61I, H98D
notes: as for B2
B11: B124P mutant expressed as full length IgG4 antibody (antibody, V domains shown)
VH: B1 VH with Y32N, G54E, G62D
VL: B1 VL with S32Q, K35N, S57D, H98D
notes: Full length IgG4
B12: F54P mutant expressed as full length IgG4 antibody (antibody, V domains shown)
VH: B1 VH with Y32Q, G54E, Y60M, G66T
VL: B1 VL with S32E, K35N, S57D, H98D
notes: Full length IgG4
B13: D113P scFv displayed on yeast (scFv, V domains shown)
VH: B1 VH with Y32Q, Y60M
VL: B1 VL with S32G, K35N, S57D, S61I, H98D
notes: as for B2
B14: B114P mutant expressed as full length IgG4 antibody (antibody, V domains shown)
VH: B1 VH with Y32Q, G54E, Y60M, V102D
VL: B1 VL with S32E, K35N, S57D, H98D
notes: Full length IgG4
B15: B104P mutant expressed as full length IgG4 antibody (antibody, V domains shown)
VH: B1 VH with Y32Q, G54D, G62D
VL: B1 VL with S32A, K35N, S57D, H98D
notes: Full length IgG4
B16: A104P mutant expressed as full length IgG4 antibody (antibody, V domains shown)
VH: B1 VH with Y32Q, G54E
VL: B1 VL with S32E, K35N, S57D, H98D
notes: Full length IgG4
B17: G14P scFv displayed on yeast (scFv, V domains shown)
VH: B1 VH with Y32Q, G62D
VL: B1 VL with S32E, K35N, S57D, S61D, H98D
notes: as for B2
B18: D14P mutant expressed as full length IgG4 antibody (antibody, V domains shown)
VH: B1 VH with Y32Q, G56D, G62D
VL: B1 VL with K35N, S57D, S61L, H98D
notes: Full length IgG4
B19: G24P scFv displayed on yeast (scFv, V domains shown)
VH: B1 VH with Y32N, G54E, G62D
VL: B1 VL with K35N, S57D, H98D
notes: as for B2
B20: D74P scFv displayed on yeast (scFv, V domains shown)
VH: B1 VH with Y32Q, G56N, G62D
VL: B1 VL with S32A, K35N, S57D, H98D
notes: as for B2
B21: F64P scFv displayed on yeast (scFv, V domains shown)
VH: B1 VH with W33Y, Y60M
VL: B1 VL with K35N, S57D, H98D
notes: as for B2
B22: H83P mutant expressed as full length IgG4 antibody (antibody, V domains shown)
VH: B1 VH with Y32Q, T58I, G62D
VL: B1 VL with K35N, S57D, H98D
notes: Full length IgG4
B23: A44P scFv displayed on yeast (scFv, V domains shown)
VH: B1 VH with Y32Q, G54E, G62D
VL: B1 VL with K35N, S57N, H98D
notes: as for B2
B24: B23P scFv displayed on yeast (scFv, V domains shown)
VH: B1 VH with W33Y, Y60M
VL: B1 VL with K35N, L59R, H98D
notes: as for B2

Columns and labels:
[1] = target: human SCF248 (stem cell factor 248 isoform) expressed on mouse SI/SI4 cells (human), P21583; assay: cell-based or functional assay
[2] = target: T1, PE9413, C-terminal biotinylated peptide mapping on Exon6 of the SCF molecule (SCF248) (C-terminal biotin); assay: yeast-displayed scFv, flow cytometry titration of biotinylated peptide
T1 construct: also called C-terminal biotinylated PE9413; C-ter PE9413
T1 peptide: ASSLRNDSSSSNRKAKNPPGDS
Protocol: The binding of the selected 48 clones described above to 170 nM of C-terminal biotinylated PE9413 was evaluated. The 24 clones with the highest binding signal were further evaluated for binding affinity. Each clone was incubated with increasing amounts of biotinylated PE9413, and stained with a fluorescently labeled anti-streptavidin antibody. Binding of the clone to PE9413 was analyzed by flow cytometry. A plot of concentration of PE9413 versus the median fluorescent signal of the yeast cell population that bound to PE9413 was used to estimate the binding affinity (KD) of each clone to C-terminal biotinylated PE9413.

[3] = target: T2, exon 6 peptide (ASSLRNDSSSSNRKAKNPPGDS), coated on ELISA plate (not fully specified); assay: direct ELISA on coated peptide, IgG4, read at 450 nm
T2 construct: No biotin is mentioned for the ELISA coat; also called a peptide of SCF248
T2 peptide: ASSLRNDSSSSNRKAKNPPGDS
Protocol: A direct enzyme-linked immunosorbent assay (ELISA) was performed to evaluate binding of the clones of Example 2 (referred to in all additional examples as “mutants”) to the Exon 6 peptide. The mutants were expressed as full length IgG4 antibodies.
The plate was incubated at 4° C. overnight. […] Both plates were washed with wash buffer twice. Then, the plates were blocked with blocking buffer for 1 hour at 37° C. The plates were then washed with wash buffer twice. […] The plate was covered and incubated for 1 hour at 37° C. The plates were then washed with wash buffer three times. The secondary antibody was added to the plates. The plates were covered and incubated for 1 hour at 37° C. The plates were then washed with wash buffer three times. 100 μL of detection substrate was added to each well of the plates. The plates were covered and incubated for 10-20 minutes at room temperature. Subsequently, 100 μL of stop solution was added to the plates. Each plate was read at an absorbance of 450 nm.
Reagents: Coating buffer contained 1.5M NaCl, 0.5M […], and 1.0N NaOH. Wash buffer contained 0.05% Tween-20 in PBS. Blocking buffer contained 2.0% normal goat serum in wash buffer. The dilution buffer was wash buffer and 2% FCS. The secondary antibody was a goat anti-human IgG HRP conjugate, purchased from Millipore (Catalogue Number: AP309P). The secondary antibody was diluted 1:1000. The detection substrate was prepared by dissolving 4 O-phenylenediamine dihydrochloride (OPD) tablets dissolved in 12 mL sterile distilled water. 5 μL of hydrogen peroxide (30% v/v) was added to the detection substrate immediately before adding substrate to the wells. The stop solution contained 0.5 M H₂SO₄.

human SCF248 (stem cell factor 248 isoform) expressed on mouse SI/SI4 cells (human), P21583, sequence (P21583 26-273): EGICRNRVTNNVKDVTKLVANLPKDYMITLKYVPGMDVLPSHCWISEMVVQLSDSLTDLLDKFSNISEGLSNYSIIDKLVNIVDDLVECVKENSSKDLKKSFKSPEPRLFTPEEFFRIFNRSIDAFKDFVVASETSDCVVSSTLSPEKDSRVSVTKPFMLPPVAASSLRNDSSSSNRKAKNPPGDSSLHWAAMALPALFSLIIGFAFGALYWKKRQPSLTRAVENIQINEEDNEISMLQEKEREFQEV

| Binder | CCL2 Expression as Percentage of Positive Control [1] [%] | TGFβ Expression as Percentage of Positive Control [1] [%] | Kd [2] [nM] | absorbance at 0.1 ng/mL antibody [3] [absorbance] | absorbance at 0.5 ng/mL antibody [3] [absorbance] | absorbance at 1 ng/mL antibody [3] [absorbance] | absorbance at 5 ng/mL antibody [3] [absorbance] | absorbance at 100 ng/mL antibody [3] [absorbance] | absorbance at 1000 ng/mL antibody [3] [absorbance] |
| --- | --- | --- | --- | --- | --- | --- | --- | --- | --- |
| B1 | 37 | 65.5 | – | – | – | – | – | – | – |
| B2 | – | – | 4.97 | – | – | – | – | – | – |
| B3 | 22.9 | 47.9 | – | 0.122 | 0.172 | 0.564 | 1.41 | 2.71 | 3.12 |
| B4 | – | – | 5.06 | – | – | – | – | – | – |
| B5 | 40.6 | 58.4 | – | 0.105 | 0.249 | 0.58 | 1.3 | 2.56 | 3 |
| B6 | 42.2 | 58.5 | – | 0.0895 | 0.207 | 0.744 | 1.98 | 2.16 | 2.9 |
| B7 | – | – | 6.97 | – | – | – | – | – | – |
| B8 | 35.6 | 65.8 | – | 0.131 | 0.193 | 0.56 | 1.48 | 2.67 | 3.14 |
| B9 | – | – | 6.33 | – | – | – | – | – | – |
| B10 | – | – | 14.4 | – | – | – | – | – | – |
| B11 | 55.9 | 49.6 | – | 0.0985 | 0.183 | 0.629 | 1.32 | 2.4 | 2.76 |
| B12 | 55.7 | 74.6 | – | 0.11 | 0.367 | 0.446 | 1.35 | 1.57 | 2.42 |
| B13 | – | – | 8.07 | – | – | – | – | – | – |
| B14 | 59.1 | 59.5 | – | 0.098 | 0.127 | 0.446 | 1.11 | 2.43 | 2.81 |
| B15 | 31.7 | 43.9 | – | 0.0855 | 0.174 | 0.527 | 1.13 | 1.83 | 2.48 |
| B16 | 27.4 | 46.9 | – | 0.092 | 0.305 | 1.02 | 1.57 | 2.6 | 2.94 |
| B17 | – | – | 5.93 | – | – | – | – | – | – |
| B18 | 46.8 | 48.8 | – | 0.137 | 0.266 | 0.861 | 1.81 | 2.53 | 3.15 |
| B19 | – | – | 5.79 | – | – | – | – | – | – |
| B20 | – | – | 6.38 | – | – | – | – | – | – |
| B21 | – | – | 6.69 | – | – | – | – | – | – |
| B22 | 56.2 | 77.1 | – | 0.204 | 0.537 | 0.597 | 1.42 | 1.81 | 2.32 |
| B23 | – | – | 5.32 | – | – | – | – | – | – |
| B24 | – | – | 5.3 | – | – | – | – | – | – |
